Literature values, collected in patent US20230076733A1, “Combination Therapy” (AGENCY FOR SCIENCE, TECHNOLOGY AND RESEARCH, priority 2020, published 2023).

Details: phase 3 trials, cited from earlier work

B1: Figitumumab (antibody, chains of the INN, looked up)
heavy: EVQLLESGGGLVQPGGSLRLSCTASGFTFSSYAMNWVRQAPGKGLEWVSAISGSGGTTFYADSVKGRFTISRDNSRTTLYLQMNSLRAEDTAVYYCAKDLGWSDSYYYYYGMDVWGQGTTVTVSSASTKGPSVFPLAPCSRSTSESTAALGCLVKDYFPEPVTVSWNSGALTSGVHTFPAVLQSSGLYSLSSVVTVPSSNFGTQTYTCNVDHKPSNTKVDKTVERKCCVECPPCPAPPVAGPSVFLFPPKPKDTLMISRTPEVTCVVVDVSHEDPEVQFNWYVDGVEVHNAKTKPREEQFNSTFRVVSVLTVVHQDWLNGKEYKCKVSNKGLPAPIEKTISKTKGQPREPQVYTLPPSREEMTKNQVSLTCLVKGFYPSDIAVEWESNGQPENNYKTTPPMLDSDGSFFLYSKLTVDKSRWQQGNVFSCSVMHEALHNHYTQKSLSLSPG
light: DIQMTQFPSSLSASVGDRVTITCRASQGIRNDLGWYQQKPGKAPKRLIYAASRLHRGVPSRFSGSGSGTEFTLTISSLQPEDFATYYCLQHNSYPCSFGQGTKLEIKRTVAAPSVFIFPPSDEQLKSGTASVVCLLNNFYPREAKVQWKVDNALQSGNSQESVTEQDSKDSTYSLSSTLTLSKADYEKHKVYACEVTHQGLSSPVTKSFNRGEC
Lung cancer, Figitumumab in combination with one chemotherapy regimen versus carboplatin or paclitaxel chemotherapy alone
  serious adverse events and deaths: 21%
Figitumumab combined with established chemotherapy regimens (carboplatin and paclitaxel)
  survival: failed to improve survival
